IntAct's records for PubMed 25678599

B1: Segment polarity protein dishevelled homolog DVL-2 (Mus musculus), Q60838 (parent)
chain: MAGSSAGGGGVGETKVIYHLDEEETPYLVKIPVPAERITLGDFKSVLQRPAGAKYFFKSMDQDFGVVKEEISDDNARLPCFNGRVVSWLVSSDTPQPEVAPPAHESRTELVPPPPPLPPLPPERTSGIGDSRPPSFHPNVSSSHENLEPETETESVVSLRRDRPRRRDSSEHGAGGHRPGGPSRLERHLAGYESSSTLMTSELESTSLGDSDEDDTMSRFSSSTEQSSASRLLKRHRRRRKQRPPRMERTSSFSSVTDSTMSLNIITVTLNMEKYNFLGISIVGQSNERGDGGIYIGSIMKGGAVAADGRIEPGDMLLQVNDMNFENMSNDDAVRVLRDIVHKPGPIVLTVAKCWDPSPQAYFTLPRNEPIQPIDPAAWVSHSAALTGAFPAYPGSSSMSTITSGSSLPDGCEGRGLSVHMDMASVTKAMAAPESGLEVRDRMWLKITIPNAFLGSDVVDWLYHHVEGFPERREARKYASGLLKAGLIRHTVNKITFSEQCYYVFGDLSGGCESYLVNLSLNDNDGSSGASDQDTLAPLPGATPWPLLPTFSYQYPAPHPYSPQPPPYHELSSYTYGGGSASSQHSEGSRSSGSTRSDGGAGRTGRPEERAPESKSGSGSESELSSRGGSLRRGGEPGGTGDGGPPPSRGSTGAPPNLRALPGLHPYGAPSGMALPYNPMMVVMMPPPPPPVSTAVQPPGAPPVRDLGSVPPELTASRQSFHMAMGNPSEFFVDVM
partner: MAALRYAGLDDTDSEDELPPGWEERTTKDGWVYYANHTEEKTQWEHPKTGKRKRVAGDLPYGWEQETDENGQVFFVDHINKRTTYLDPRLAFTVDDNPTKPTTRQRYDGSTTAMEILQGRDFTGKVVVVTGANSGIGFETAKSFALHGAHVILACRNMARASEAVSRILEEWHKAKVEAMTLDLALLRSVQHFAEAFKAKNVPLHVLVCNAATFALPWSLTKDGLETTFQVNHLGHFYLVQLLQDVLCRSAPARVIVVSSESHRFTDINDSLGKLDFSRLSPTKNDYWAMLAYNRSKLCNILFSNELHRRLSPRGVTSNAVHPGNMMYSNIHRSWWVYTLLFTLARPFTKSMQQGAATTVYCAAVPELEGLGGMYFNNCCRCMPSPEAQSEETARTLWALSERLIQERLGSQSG
B2: B-cell CLL/lymphoma 9-like protein (Mus musculus), Q67FY2 (parent)
chain: MRILANKTRLPHPRRREAPGSPPLSPRGHCPPAPAKPMHPENKLTNHGKTGNGGAQSQHQNVNQGPTCNLGSKGVGAGSHGAKANQISPSNSSLKNPQAGVSPFSSLKGKVKRERSVSVDSGEQREAGTPSLDSEAKEVAPRSKRRCVLERKQPYSGDEWCSGPDSEEDDKPIAAAHNCNVADPAMVTPQLGPGQTAQLPLSESSAPGPQHGPQPGLRPDVPGGGGGGVPGKPPSQFVYVFTTHLANTAAEAVLQGRAESILAYHQQNVPRAKLDQAPKVPPTPEPLPLNTPSAGTPQSQPPPLPPPPPAPGSAPPALPPEGPPEDTSQDLAPNSVGAASTGGGTGGTHPNTPTAATANNPLPPGGDPGSAPGSALLGEATPTGNGQRNLVGSEGLSKEQLEHRERSLQTLRDIERLLLRSGETEPFLKGPPGGAGEGGPPAQAPSAAQPPPSAPPGGLKKYEEPLQSMISQTQSLGGPPLEHEVPGHPQGGDMGQQMNMMMQRLGQDSLTPEQVAWRKLQEEYYEEKRRKEEQIGLHGGRPLQDMVGMGGMMGRGPPPPYHSKPGDQWPPGMGAQLRGPMDVQDPMQLRPGPPFPGPRFPGNQMQRVPGFGGMQSMPMEVPMNAMQRPVRPGMAWNEDLPPIGGPSNFAQNAVPYPGGQGEAERFMTPRVREELLRHQLLEKRSMGMQRPLGMAGSGMGQSMEMERMIQAHRQMDPAMFPGQMTGGDGLAGTPMGIEFGGGRGLLSPPMGQSGLREVDPPMGPGNLNMNMNVNMNMNMNLNVQMTPQQQMLMSQKMRGPGDMMGPQGLSPEEMARVRAQNSSGMMGGPQKMLMPSQFPNQGQQGFSGGQGPYQAMPQDMGNTPDMFSPDQSSVPMGTVGTARLSHMPLPPASNPPGSVHLASNRGLGRRPSDLTISINQMGSPGMGHLKSPTLSQVHSPLVTSPSANLKSPQTPSQMVPLPSANPPGPLKSPQVLSSSLGVRSPTGSPSRLKSPSMAVPSPGWVASPKTAMPSPGVSQNKQPPLSINSSSTLGNVEQGALPPSAPRNSSSAPPANPSSGLMNPSLPFTSSPDPTPSQNPLSLMMSQMSKYAMPSSTPLYHNAIKTIATSDDELLPDRPLLPPPPPPQGSGPGISNNQPNQMHMNPAAAQSPMGMNLPGQQPLSHEPPPTMLPSPTPLGSNIPLHPNAQGTGGSSQNSMMMAPGGPDSLNAPCGPVPSSSQMMSFPPRLQQPHGAMAPTGAGGPGLQQHYPSGMALPPEDLPTQPPGPIPPQQHLMGKGMTGRMGDAYPPGVLPGVASVLNDPELSEVIRPTPTGIPEFDLSRIIPSEKPSSTLQYFPKSENQPPKAQPPNLHLMNLQNMMAEQTPSRPPNLPGQQGVQRGLSMSMCHPGQMSLLGRTGVPPQQGMVPHGLHQGVMSPPQGLMTQQNFMLMKQRGVGGEVYTQPPHMLSPQGSLMGPPPQQNLMVSHPLRQRSVSLDSQMGYLPTPGSMANLPF
partner: B1 partner
B3: WW domain-containing oxidoreductase (Homo sapiens), Q9NZC7 (parent)
chain: B1 partner
partner: B1 chain
B4: WW domain-containing oxidoreductase (Homo sapiens), Q9NZC7 (parent)
chain: B1 partner
partner: B2 chain

Variants of: B1
Conditions: with wwox_human WWOX, Q9NZC7
With Y568A the “effect of a mutation on the interaction” value was “decreasing interaction”.

Variants of: B2
Conditions: with wwox_human WWOX, Q9NZC7
Y561A was tested, and the “effect of a mutation on the interaction” value was “disrupting interaction”.

Variants of: B3
Conditions: with dvl2_mouse Dvl2, Q60838
Y33R was tested, and the “effect of a mutation on the interaction” value was “decreasing interaction”.

Variants of: B4
Conditions: with bcl9l_mouse Bcl9l, Q67FY2
In the case of Y33R, the “effect of a mutation on the interaction” value is reported as “decreasing interaction”.
